Data taken from the RNAGym collection of RNA variant scans (doi:10.7554/elife.80360).

B1: HDV Ribozyme (parent)
chain: GGCCGGCAUGGUCCCAGCCUCCUCGCUGGCGCCGGCUGGGCAACAUUCCGAGGGGACCGUCCCCUCGGUAAUGGCGAAUGGGACCCA

Variants of: B1
Test: self-cleavage, relative activity (ratio to wild type); higher = more cleavage; co-transcriptional

First: U72G C85U
Second: C7A C36U
The self-cleavage of the first is higher: 0.644 for the first, 0.203 for the second.

First: G11C C48U
Second: C66G G74A
The self-cleavage of the first is lower: 0.119 for the first, 0.471 for the second.

First: C75G A87G
Second: G17C U79G
The self-cleavage of the first is lower: 0.108 for the first, 0.128 for the second.

Going from C18A G68A to G2A A83G, the self-cleavage falls from 0.237 to 0.122.

First: U23G C57U
Second: U9A C26A
The self-cleavage of the first is higher: 0.785 for the first, 0.76 for the second.

Compared with G55A C61U, G34U G55A is lower in self-cleavage: 0.96 for the first, 0.114 for the second.

Compared with G10C G82A, G55C C64G is higher in self-cleavage: 0.314 for the first, 0.953 for the second.

Going from C32A A83U to A16U C49U, the self-cleavage rises from 0 to 0.918.

Going from G35U G82U to G59U C62U, the self-cleavage rises from 0.162 to 1.07.

Compared with G73C, U65G U69A is higher in self-cleavage: 0.505 for the first, 1.23 for the second.

First: C18U G76A
Second: C22G U37G
The self-cleavage of the first is higher: 0.728 for the first, 0.0831 for the second.

Compared with G29U C62A, G53A C64U is higher in self-cleavage: 0.0773 for the first, 0.968 for the second.

First: C57U C86U
Second: C22A C86G
The self-cleavage of the first is higher: 0.991 for the first, 0.208 for the second.

Compared with A8G A83C, C14G C21U is lower in self-cleavage: 0.262 for the first, 0.113 for the second.

Compared with C3A C57G, U9A C62A is higher in self-cleavage: 0.587 for the first, 1.03 for the second.

Compared with G28C G52U, G25A G80C is higher in self-cleavage: 0.0831 for the first, 0.12 for the second.

G1C U37G and G5U C30G are the same in self-cleavage: 0 for the first, 0 for the second.

Going from A8G C21U to G11U C21G, the self-cleavage falls from 0.201 to 0.086.

First: C44G C64G
Second: C7A A51C
The self-cleavage of the first is higher: 0.678 for the first, 0.609 for the second.

Compared with G67C U79A, C18A G55A is lower in self-cleavage: 0.935 for the first, 0.0314 for the second.

First: U46C A71U
Second: C19U C64U
The self-cleavage of the first is higher: 0.767 for the first, 0.148 for the second.

First: G31U G68C
Second: C36G G53A
The self-cleavage of the first is higher: 0.344 for the first, 0.0959 for the second.

Compared with G34U G67C, A45U C86A is higher in self-cleavage: 0.22 for the first, 0.77 for the second.

First: G25U C32U
Second: C19U G40C
The self-cleavage of the first is higher: 0.161 for the first, 0.0923 for the second.

First: G35C G59C
Second: U12C A45U
The self-cleavage of the first is higher: 0.424 for the first, 0.196 for the second.

Compared with C24U C63G, G40U C61G is lower in self-cleavage: 0.76 for the first, 0.534 for the second.

First: U47C A70U
Second: U79G G82U
The self-cleavage of the first is higher: 0.864 for the first, 0.271 for the second.

First: G25U U65A
Second: U37A A87C
The self-cleavage of the first is lower: 0 for the first, 0.17 for the second.

First: U23A G34A
Second: G2U G31A
The self-cleavage of the first is higher: 0.121 for the first, 0.0578 for the second.

First: G40C G53U
Second: C18G C22A
The self-cleavage of the first is higher: 0.337 for the first, 0.172 for the second.

Going from A16U G50U to U60G A83U, the self-cleavage falls from 0.889 to 0.415.

Compared with U27C C75U, G2C U60C is lower in self-cleavage: 0.161 for the first, 0.0545 for the second.

Going from C4U C36G to G5U G17A, the self-cleavage rises from 0.0707 to 0.189.

Compared with G5U G17C, C24G C64U is higher in self-cleavage: 0 for the first, 0.0886 for the second.

Compared with U69G G82A, G38C A43G is lower in self-cleavage: 0.453 for the first, 0.219 for the second.

Going from C57G C58G to C44A C84G, the self-cleavage falls from 0.943 to 0.0519.

Going from U9C C13U to C32A C58A, the self-cleavage falls from 0.453 to 0.208.

Going from G34U C48G to C36G G82C, the self-cleavage falls from 0.151 to 0.141.

Compared with G35U C49A, A56C G74U is higher in self-cleavage: 0.499 for the first, 0.708 for the second.

Going from U27C G59A to U37A G52U, the self-cleavage falls from 0.742 to 0.214.

Going from C7U G11C to U60C A78C, the self-cleavage rises from 0.119 to 0.19.

Going from G29U G34U to C36U G55C, the self-cleavage rises from 0.0519 to 0.789.

Compared with C84G C85G, C22U C48A is higher in self-cleavage: 0.26 for the first, 0.815 for the second.

Going from G31A G82A to C15G G80C, the self-cleavage rises from 0.166 to 0.88.

G68A U72G and U9G U46A are the same in self-cleavage: 0.312 for the first, 0.312 for the second.

Going from C15G C33G to G50A A77C, the self-cleavage rises from 0.0489 to 0.227.

First: G5U U79A
Second: C4G C63G
The self-cleavage of the first is higher: 0.104 for the first, 0.0396 for the second.

Compared with G10C U23G, G11C U20G is lower in self-cleavage: 0.332 for the first, 0 for the second.

Compared with U12C C14U, G54U U79G is lower in self-cleavage: 0.277 for the first, 0.266 for the second.

Going from U23G U72A to C49U U65A, the self-cleavage rises from 0.341 to 0.966.

Going from C4U G17A to A8C C66G, the self-cleavage rises from 0.332 to 0.997.

Going from C14U A43U to C57G U65C, the self-cleavage rises from 0.443 to 0.96.

Going from A51G G54U to A77C G81A, the self-cleavage falls from 1.07 to 0.173.

Going from U20C A83C to C21A U79A, the self-cleavage falls from 0.133 to 0.125.

First: A70G C84A
Second: A78G G81U
The self-cleavage of the first is higher: 0.853 for the first, 0.185 for the second.

Compared with G10C A51U, A51C G74C is lower in self-cleavage: 0.923 for the first, 0.196 for the second.

First: A43G G68A
Second: A45C G81U
The self-cleavage of the first is higher: 0.665 for the first, 0.262 for the second.

First: G2A A8G
Second: G28U G53A
The self-cleavage of the first is lower: 0.0773 for the first, 0.0801 for the second.

Going from C33U U72G to G17A C32A, the self-cleavage falls from 0.405 to 0.0852.

Going from C49U G53A to C24G U27G, the self-cleavage falls from 0.916 to 0.0536.

Compared with G52U C86A, G55A G81C is lower in self-cleavage: 0.926 for the first, 0.312 for the second.

First: U47C U60G
Second: G5C C18G
The self-cleavage of the first is higher: 0.935 for the first, 0.262 for the second.

First: G52C C64G
Second: G5C A43G
The self-cleavage of the first is higher: 0.739 for the first, 0 for the second.

Compared with U23A A43C, A16G U72G is higher in self-cleavage: 0.312 for the first, 0.332 for the second.

First: C3A A70U
Second: U12C G17C
The self-cleavage of the first is higher: 0.437 for the first, 0.145 for the second.

Compared with G28A G54U, A45G C61G is higher in self-cleavage: 0.0733 for the first, 0.467 for the second.

Going from G55U G67U to G59A G67A, the self-cleavage falls from 1.07 to 0.979.

Compared with U23C A77C, A42C A87C is higher in self-cleavage: 0.256 for the first, 0.367 for the second.

Compared with G28U G54U, G34U G82U is lower in self-cleavage: 0.0712 for the first, 0.0631 for the second.

Compared with C63A A87C, G34C C64U is lower in self-cleavage: 1 for the first, 0.271 for the second.

First: C64U G76A
Second: G1A U46A
The self-cleavage of the first is higher: 1.01 for the first, 0.0755 for the second.

Going from A8C G82A to C44G U46G, the self-cleavage rises from 0.172 to 0.609.

Going from C63G G67A to C13G C41A, the self-cleavage falls from 0.372 to 0.0489.

Compared with C24U U46G, A71U G73A is higher in self-cleavage: 0.415 for the first, 0.432 for the second.

Compared with C32U G55C, G40A A77U is lower in self-cleavage: 0.866 for the first, 0.523 for the second.

First: C62G C75G
Second: C84U
The self-cleavage of the first is lower: 0.26 for the first, 0.804 for the second.

Going from C3G G5A to G81A C86G, the self-cleavage rises from 0.18 to 0.45.

First: A56U U79A
Second: C26U G29A
The self-cleavage of the first is higher: 0.569 for the first, 0.332 for the second.

First: C4A U79A
Second: C14A C19U
The self-cleavage of the first is lower: 0.0739 for the first, 0.182 for the second.

Going from U65C U79A to U20A G82C, the self-cleavage falls from 0.644 to 0.

Going from U46G U60G to U23A G73A, the self-cleavage rises from 0.415 to 0.575.

Compared with G29C A78U, C14G G52U is higher in self-cleavage: 0.0773 for the first, 0.391 for the second.

Compared with C18U A43U, G54U A56G is higher in self-cleavage: 0.138 for the first, 1.15 for the second.

For G50C U60C, the self-cleavage was 1.13.
